Results on one molecule are retold here after publication PMC3954793, “SHP-2 Binds to Caveolin-1 and Regulates Src Activity via Competitive Inhibition of CSK in Response to H2O2 in Astrocytes” (PLoS ONE, 2014).

In one assay the test system is caveolin-1/CSK complex. As to the kind of experiment: Co-immunoprecipitation of caveolin-1 and CSK. It counts as cell-based, human. The following applies: HEK 293T cells transfected with WT or Y14A caveolin-1; 5 mM H2O2, 10 min. The protocol:
(§1) cDNA encoding full-length human caveolin-1 was obtained from Thermo Scientific (Waltham, MA, USA). The Y14A caveolin-1 mutant was generated using a QuickChange site-directed mutagenesis kit (Stratagene, Santa Clara, CA, USA) using PCR. pCMV-SPORT6-caveolin-1 cDNA (25 ng) was used as a template and added to dNTP mix, Pfu buffer, Pfu turbo DNA polymerase and 125 ng of each of the mutagenic primers: sense, 5′-[…]-3′ and antisense, 5′-[…]-3′. Samples were then incubated at 95°C for 1 min, then for 20 cycles of 95°C for 1 min, 65°C for 4 min, and 68°C for 12 min. The methylated parental DNA template in the PCR product was digested using the DpnI (10 U) restriction enzyme for 3 h at 37°C. […] After mutagenesis, 1 µg of caveolin-1 wild-type (WT) or Y14A mutant DNA was transfected into HEK 293T cells using VIVAMAGIC transfection reagent (VIVAGEN, Seongnam, Korea) containing 10% FBS according to the manufacturer’s instructions for 24 h before treatment with 5 mM H2O2 for 10 min; the cells were then analyzed by immunoblotting.
(§2) Cells were plated and transfected with green fluorescence protein (GFP) siRNA (Samchully Pharm Co. Ltd., Seoul, Korea) as a control group and human CSK siRNA and human SHP-2 siRNA from Bioneer (Daejeon, Korea) using Lipofectamine RNAiMAX (Invitrogen, Carlsbad, CA, USA) according to the manufacturer’s instructions to achieve a final concentration of 300 nM. […]

A further assay deals with caveolin-1/SHP-2 complex. The assay can be described thus: Co-immunoprecipitation of caveolin-1 and SHP-2. The following applies: HEK 293T cells transfected with WT or Y14A caveolin-1; 5 mM H2O2, 10 min. Type of assay: cell-based, human. The protocol: as §1, §2

B1: WT caveolin-1: full-length human wild-type caveolin-1 expressed in transfected HEK 293T cells (protein)
chain: MSGGKYVDSEGHLYTVPIREQGNIYKPNNKAMADELSEKQVYDAHTKEIDLVNRDPKHLNDDVVKIDFEDVIAEPEGTHSFDGIWKASFTTFTVTKYWFYRLLSALFGIPMALIWGIYFAILSFLHIWAVVPCIKSFLIEIQCISRVYSIYVHTVCDPLFEAVGKIFSNVRINLQKEI
modifications: phosphotyrosine at 14 after H2O2 treatment
notes: full-length human wild-type caveolin-1 expressed in transfected HEK 293T cells
B1: in the assay on caveolin-1/CSK complex, the “interaction between CSK and transfected caveolin-1” value is “An interaction between CSK and WT caveolin-1, but not Y14A mutant caveolin-1, was observed in the presence of H2O2”. Also, the “interaction of SHP-2 with transfected caveolin-1” value in the assay on caveolin-1/SHP-2 complex was “SHP-2 interacted with WT caveolin-1, but not mutant caveolin-1, and only in the presence of H2O2”.
